Measurements taken from publication PMC9001700 (Communications Biology, 2022).

T1: synthetic stem helix peptide spanning residues 1149–1167 (SARS-CoV-2, UniProt P0DTC2)
T1 chain: KEELDKYFKNHTSPDVDLG

B1: CV3-25 IgG (antibody, V domains shown)
VH: QVQLVESGAEVKKPGESLKISCKGSGYTFTRYWIGWVRQMPGKGLEWMGIIYPGDSDTRYSPSFQGHVTISADKSISTAYLQWNSLKASDTAMYYCARLPQYCSNGVCQRWFDPWGQGTLVTVSS
VL: EIVLTQSPSSVSASVGDRVTITCRASQGISSWLAWYQQKPGKAPKLLIYAASSLQSGVPSRFSGSGSGTDFTLTISSLQPEDFATYYCQQGNSFPYTFGQGTNLEIK
notes: also called CV3-25 mAb; source: 293 cells, purified (protein A resin); copies: 2 + 2
B2: CV3-25 Fab (Fab, V domains shown)
VH: QVQLVESGAEVKKPGESLKISCKGSGYTFTRYWIGWVRQMPGKGLEWMGIIYPGDSDTRYSPSFQGHVTISADKSISTAYLQWNSLKASDTAMYYCARLPQYCSNGVCQRWFDPWGQGTLVTVSS
VL: EIVLTQSPSSVSASVGDRVTITCRASQGISSWLAWYQQKPGKAPKLLIYAASSLQSGVPSRFSGSGSGTDFTLTISSLQPEDFATYYCQQGNSFPYTFGQGTNLEIK
notes: also called monovalent Fab

Tests used:
Settings in all cases: both partners purified
[1] = target: T2, HCoV-HKU1 S-2P-T4f-3C-His8-Strep2x2 (stabilized spike ectodomain) (HCoV-HKU1, isolate  (isolate …, UniProt Q0ZME7, stabilised)); experiment: BLI
T2 construct: also called HCoV-HKU1-S2P.his; stabilized spike ectodomain from HCoV-HKU1; source: 293E cells, purified (Ni-NTA, SEC on superose 6)

[2] = target: T3, HCoV-OC43 S-2P-T4f-3C-His8-Strep2x2 (stabilized spike ectodomain) (HCoV-OC43, strain , UniProt P36334, stabilised); experiment: BLI
T3 construct: also called HCoV-OC43-S2P.his; stabilized spike ectodomain from HCoV-OC43; source: 293E cells, purified (Ni-NTA, SEC on superose 6)

[3] = target: T1, synthetic stem helix peptide spanning …; experiment: crystal structure

Binder | binding result [1] | binding result [2] | binding result [3]
B1 | binds | binds | 
B2 |  |  | binds
